Measured values from patent US20080044422A1 (Janssen / Centocor, published 2008).

Biological target: the molecule itself
Assay: SELDI mass spectrometry of the purified protein alone, non-reduced sample (self-association)
Method: Recombinantly expressed proteins were analyzed by SDS-PAGE, anti-myc western blot, MALDI-MS, and SEC HPLC. In addition, O-linked glycosylation was analyzed by first treating the proteins with O-glycosidase with and without sialidase. The released O-glycans were labeled with anthranilic acid and analyzed by HPLC. The truncated CNGH0010.2 protein containing exons 1-5, 8, 9, 12, and 13 (SEQ ID NO:41) is predicted to be 37.5 kDa. […] In addition, it appears as if the molecule has a propensity to multimerize, as non-reduced analysis by SDS-PAGE, SELDI-MS (FIG. 5), and SEC-HPLC (FIG. 6), all indicate that dimeric and trimeric forms of the truncated CNGH0010.2 molecule exist in solution.

B1: truncated CNGH0010.2 protein containing exons 1-5, 8, 9, 12, and 13 (other)
chain: GPLQSGEESTGTNIGEALGHGLGDALSEGVGKAIGKEAGGAAGSKVSEALGQGTREAVGTGVRQVPGFGAADALGNRVGEAAHALGNTGHEIGRQAEDVIRHGADAVRGSWQGVPGHNGAWETSGGHGIFGSQGGLGGQGQGNPGGLGTPWVHGYPGNSAGSFGMNPQGAPWGQGGNGGPPNFGTNTQGAVAQPGYGSVRASNQNEGCTNPPPSGSGGGSSNSGGGSGSQSGSSGSGSNGDNNNGSSSGGSSSGSSSGGSSGGSSGGSSGNSGGSRGDSGSESSWGSSTGSSSGNHGGSGGGDGHKPGCEKPGNEARGSGESGIQGQGSSWGSGGGDAVGGVNTVNSETS
modifications: O-linked oligosaccharides (sites not given)
notes: The signal peptide (probably residues 1-21, same exon 1) is cleaved in the secreted protein; also called CNGH0010 (exons 1-13); His tagged CNGH0010.2 fusion protein; not shown: C-terminal hexa-His (myc-His vector) tag
B1: binds.
